Experimental data taken from article PMC5112522.

Experiments:
[1] = target: Recombinant gp120 protein from HIV-1 strain IIIB (HIV-1 strain IIIB) (UniProt P04578); experiment: SPR; gp120 (115 RUs) and gp41 (45 RUs) amine-coupled on a CM4 chip; lectins as analytes (two-fold dilutions, 0-20 nM HHA, 0-4000 nM Ld WCFS1, 0-1000 nM Ld CMPG5300); 1:1 binding model, apparent KD; 25 °C, Biacore T200, HBS-P pH 7.4 (10 mM HEPES, 150 mM NaCl, 0.05% P20) with 10 mM CaCl2
[2] = target: Recombinant gp41 protein from HIV-1 (HXB2 strain) (HIV-1 (HXB2 strain)) (UniProt P04578); experiment: as above
[3] = target: Recombinant gp120 protein from HIV-1 strain IIIB (HIV-1 strain IIIB) (UniProt P04578)

Substance	Kd [1] [µM]	koff [1] [s⁻¹]	kon [1] [M⁻¹ s⁻¹]	Kd [2] [µM]	koff [2] [s⁻¹]	kon [2] [M⁻¹ s⁻¹]	inhibition of HIV-1 infection in human CD4+ T-lymphocytic C8166 cell and Raji DCSIGN cultures (data not shown) [3] [µg/mL]
Hippeastrum hybrid (amaryllis) lectin (HHA) (natural protein)	0.00132	0.00219	1.66e+06	0.000836	0.00229	2.75e+06	
Lectin domain of Msa (Lp_1229) of Lactobacillus plantarum WCFS1 (from UniProt F9UN23 1-1010) (domain or fragment)	6.26	0.0164	2620	3.3	0.0236	7150	
Lectin domain of Msl (Cmpg5300.05_29) of Lactobacillus plantarum CMPG5300 (domain or fragment)	1.85	0.0564	30500	1.62	0.0288	22900	> 200
